Data published in article PMC6424575 (Biochemistry, 2018).

Experiments:
[1] = molecular target: DEBS3 (bimodular protein of the 6-deoxyerythronolide B synthase) (Saccharopolyspora erythraea, UniProt Q03133); experiment: SEC-SAXS
DEBS module 3+TE = DEBS module 3+TE (Saccharopolyspora erythraea); experiment: ELISA

Chain of DEBS3 (bimodular protein of the 6-deoxyerythronolide B synthase) (Q03133 whole entry): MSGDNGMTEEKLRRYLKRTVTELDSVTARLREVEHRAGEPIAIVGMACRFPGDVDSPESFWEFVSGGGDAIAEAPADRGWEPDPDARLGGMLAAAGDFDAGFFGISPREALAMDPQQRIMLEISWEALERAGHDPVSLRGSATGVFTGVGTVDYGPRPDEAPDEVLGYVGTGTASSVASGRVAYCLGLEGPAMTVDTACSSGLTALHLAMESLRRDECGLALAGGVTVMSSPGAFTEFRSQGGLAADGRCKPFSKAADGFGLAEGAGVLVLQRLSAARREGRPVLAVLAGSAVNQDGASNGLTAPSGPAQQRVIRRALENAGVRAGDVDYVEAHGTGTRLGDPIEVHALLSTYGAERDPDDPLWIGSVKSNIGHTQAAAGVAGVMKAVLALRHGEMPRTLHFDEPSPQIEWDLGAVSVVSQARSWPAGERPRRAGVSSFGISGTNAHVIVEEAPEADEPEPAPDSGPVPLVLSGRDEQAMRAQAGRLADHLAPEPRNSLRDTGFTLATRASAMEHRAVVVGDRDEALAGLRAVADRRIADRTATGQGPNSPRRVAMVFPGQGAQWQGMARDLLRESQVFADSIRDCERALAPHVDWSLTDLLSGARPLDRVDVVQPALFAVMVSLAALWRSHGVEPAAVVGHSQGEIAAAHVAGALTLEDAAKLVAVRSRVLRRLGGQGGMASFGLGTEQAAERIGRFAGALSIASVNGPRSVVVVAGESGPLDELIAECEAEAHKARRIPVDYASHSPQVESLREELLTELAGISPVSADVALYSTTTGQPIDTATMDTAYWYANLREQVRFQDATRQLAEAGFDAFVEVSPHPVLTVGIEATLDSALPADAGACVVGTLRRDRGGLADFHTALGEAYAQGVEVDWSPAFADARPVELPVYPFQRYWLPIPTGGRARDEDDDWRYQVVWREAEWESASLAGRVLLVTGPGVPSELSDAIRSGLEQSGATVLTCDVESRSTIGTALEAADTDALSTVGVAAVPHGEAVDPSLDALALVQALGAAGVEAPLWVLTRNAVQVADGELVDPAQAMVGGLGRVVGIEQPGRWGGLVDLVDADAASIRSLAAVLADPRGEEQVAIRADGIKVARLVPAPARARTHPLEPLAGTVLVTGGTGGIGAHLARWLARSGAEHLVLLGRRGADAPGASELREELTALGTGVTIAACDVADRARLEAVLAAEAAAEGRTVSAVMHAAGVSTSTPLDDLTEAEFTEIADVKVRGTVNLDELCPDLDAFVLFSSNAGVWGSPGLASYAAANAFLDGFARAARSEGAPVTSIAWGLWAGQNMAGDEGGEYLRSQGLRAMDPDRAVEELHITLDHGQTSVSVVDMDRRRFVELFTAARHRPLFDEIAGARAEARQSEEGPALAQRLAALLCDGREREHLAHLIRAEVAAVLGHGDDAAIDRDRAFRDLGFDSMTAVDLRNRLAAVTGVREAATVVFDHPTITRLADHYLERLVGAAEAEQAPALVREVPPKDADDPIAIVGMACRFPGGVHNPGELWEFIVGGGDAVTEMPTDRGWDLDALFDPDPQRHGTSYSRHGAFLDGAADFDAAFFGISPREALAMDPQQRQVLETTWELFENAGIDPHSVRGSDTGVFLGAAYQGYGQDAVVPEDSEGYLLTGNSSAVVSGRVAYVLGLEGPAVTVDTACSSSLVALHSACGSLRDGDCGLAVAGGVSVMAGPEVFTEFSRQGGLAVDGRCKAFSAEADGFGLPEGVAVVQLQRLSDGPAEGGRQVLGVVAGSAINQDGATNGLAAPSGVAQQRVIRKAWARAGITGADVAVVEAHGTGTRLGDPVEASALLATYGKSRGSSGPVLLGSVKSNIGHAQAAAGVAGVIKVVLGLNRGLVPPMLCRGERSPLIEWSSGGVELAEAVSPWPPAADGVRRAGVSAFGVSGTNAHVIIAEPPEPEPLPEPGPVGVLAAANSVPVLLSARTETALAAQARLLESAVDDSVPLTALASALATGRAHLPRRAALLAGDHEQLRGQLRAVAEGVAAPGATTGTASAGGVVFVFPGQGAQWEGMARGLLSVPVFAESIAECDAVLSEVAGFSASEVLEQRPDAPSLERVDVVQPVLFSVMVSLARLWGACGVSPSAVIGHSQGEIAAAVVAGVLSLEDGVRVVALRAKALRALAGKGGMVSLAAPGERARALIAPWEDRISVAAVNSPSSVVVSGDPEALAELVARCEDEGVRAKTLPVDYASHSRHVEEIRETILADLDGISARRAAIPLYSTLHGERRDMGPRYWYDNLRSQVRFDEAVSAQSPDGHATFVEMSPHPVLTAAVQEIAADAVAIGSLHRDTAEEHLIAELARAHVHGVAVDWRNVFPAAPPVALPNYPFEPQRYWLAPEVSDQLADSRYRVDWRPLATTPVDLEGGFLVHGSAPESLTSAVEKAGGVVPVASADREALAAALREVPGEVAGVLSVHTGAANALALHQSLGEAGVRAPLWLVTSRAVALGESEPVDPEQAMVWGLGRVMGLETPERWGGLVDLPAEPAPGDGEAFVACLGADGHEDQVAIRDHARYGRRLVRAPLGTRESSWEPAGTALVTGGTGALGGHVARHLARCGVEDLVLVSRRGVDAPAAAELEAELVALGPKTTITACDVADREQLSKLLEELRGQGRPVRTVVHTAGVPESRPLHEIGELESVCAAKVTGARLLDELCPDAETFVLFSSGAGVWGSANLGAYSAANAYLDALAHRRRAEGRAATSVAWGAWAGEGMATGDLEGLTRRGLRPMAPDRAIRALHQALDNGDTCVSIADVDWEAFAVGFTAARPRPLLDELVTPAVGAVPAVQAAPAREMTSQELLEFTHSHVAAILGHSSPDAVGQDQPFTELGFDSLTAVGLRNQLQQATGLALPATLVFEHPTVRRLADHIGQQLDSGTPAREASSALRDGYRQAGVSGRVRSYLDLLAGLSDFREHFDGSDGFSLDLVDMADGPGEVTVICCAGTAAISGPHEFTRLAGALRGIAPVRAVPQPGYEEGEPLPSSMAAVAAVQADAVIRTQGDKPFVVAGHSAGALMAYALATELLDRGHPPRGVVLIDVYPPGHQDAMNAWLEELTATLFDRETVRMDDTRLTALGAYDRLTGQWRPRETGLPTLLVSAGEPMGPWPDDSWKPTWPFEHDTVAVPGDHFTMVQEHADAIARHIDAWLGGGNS

binding result [1]: binds | Kd (DEBS module 3+TE): 42 ± 12 nM
B1: Fab 3A6 (Fab, V domains shown)
VH: QVQLQQWGAGLLKPSETLSLTCAVYGGSFSGYYWSWIRQPPGKGLEWIGEINHSGSTNYNPSLKSRVTISVDTSKNQFSLKLSSVTAADTAVYYCARGLGYSGSYYAPNWGQGTLVTVSS
VL: not shown
